Experimental data: publication PMC9732815 (Cell reports, 2022)
Changes are numbered by the printed parent chain. Read-outs that look alike come from different tables or passages of the source.

Experiments:
Apn2Cat(D222N/E59Q) [1] = biological target: T1, Apn2Cat(D222N/E59Q) (Saccharomyces cerevisiae, UniProt P38207 1-407, E59Q;D222N); assay: X-ray crystallography
T1 sequence: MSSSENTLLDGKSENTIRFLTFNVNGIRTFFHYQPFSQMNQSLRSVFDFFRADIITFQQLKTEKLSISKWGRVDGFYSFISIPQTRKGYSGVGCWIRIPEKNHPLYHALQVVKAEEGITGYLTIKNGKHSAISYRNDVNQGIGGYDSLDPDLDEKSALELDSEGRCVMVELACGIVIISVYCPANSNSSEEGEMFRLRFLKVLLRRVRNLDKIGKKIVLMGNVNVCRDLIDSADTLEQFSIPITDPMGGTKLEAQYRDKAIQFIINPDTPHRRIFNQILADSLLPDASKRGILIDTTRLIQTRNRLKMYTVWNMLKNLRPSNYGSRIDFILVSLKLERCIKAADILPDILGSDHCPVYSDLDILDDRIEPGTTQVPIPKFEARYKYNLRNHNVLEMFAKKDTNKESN

crystal structure = biological target: the molecule itself; assay: crystal structure
Apn2Cat(D222N/E59Q) [2] = biological target: T1, Apn2Cat(D222N/E59Q); assay: X-ray crystallography; remark: listed apart in the source

B1: duplex 2 (strand A + strand B) (dsDNA)
DNA 1: TCCGAAATTTCGG
DNA 2: CCGAAATTTCGGA
modifications: five phosphorothioate bonds at the 3' end of each strand (A TCCGAAAT*T*T*C*G*G; B CCGAAATT*T*C*G*G*A)
- binding result (Apn2Cat(D222N/E59Q) [1]): binds

B2: Recombinant S. cerevisiae Apn2^Cat (residues 1–407) (domain or fragment, UniProt P38207 1-407, looked up)
chain: T1 sequence with Q59E, N222D
- stoichiometry N (crystal structure): 2

B3: duplex 1 (strand A self-annealed) (dsDNA)
DNA 1: TCCGAAATTTCGG
DNA 2: TCCGAAATTTCGG
modifications: five phosphorothioate bonds at the 3' end of each strand (TCCGAAAT*T*T*C*G*G)
- binding result (Apn2Cat(D222N/E59Q) [2]): binds
